Test results taken from PMC9604513, “De novo selected hACE2 mimics that integrate hotspot peptides with aptameric scaffolds for binding tolerance of SARS-CoV-2 variants” (Science Advances, 2022).

Assays:
[1] = molecular target: SARS-CoV-2 RBD wild type (SARS-CoV-2 (wild type)) (UniProt P0DTC2); test: flow cytometry bead binding; conditions: 5'-hexynyl clicked to C-terminal azide of peptide LGKGDFR
pseudotyped SARS-CoV-2 = type: cell-based, SARS-CoV-2 (human hACE2-293T cells)
RBD-hACE2 binding = RBD-hACE2 binding (Severe acute respiratory syndrome coronavirus 2, UniProt P0DTC2); conditions: ELISA, 3 μM, n = 3 independent replicates

Substance | binding signal (RBD-binding fraction relative to R7-02) [1] | percentage of GFP-expressing infected cells over the total hACE2-293T cells (pseudotyped SARS-CoV-2) [%] | inhibition of RBD-hACE2 interaction (RBD-hACE2 binding) [%]
GGAAGAGATGGCGACCTCCACAACCGCTGATCGACGCAGATCTTGTGGGTAGCTGATCCTGATGG [R7-01 hybrid ligand (LGKGDFR-DNA)] | 0.2 |  | 
GGAAGAGATGGCGACCACACCAAATCTGAGTCTACCCCATGAAGGAGCTGATCCTGATGG [R7-03 hybrid ligand (LGKGDFR-DNA)] | 0.125 |  | 
LGKGDFR [LGKGDFR peptide] |  | 22.0 | 11.69
